Results taken from article PMC10397247.
Blank lines part the entries; values can stand above or below the binder they belong to.

Legend:
Assay in all cases: two-hybrid library CCmax;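 also: natural log of median RNA to DNA barcode read ratio; higher means stronger binding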
4H2513-AA = biological target: T1, 4H2513-AA; settings: mean of both orientations
T1 chain: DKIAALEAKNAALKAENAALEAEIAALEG

4H3922-AA = biological target: T2, 4H3922-AA; settings: mean of both orientations
T2 chain: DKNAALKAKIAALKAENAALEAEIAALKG

4H2512-AA = biological target: T3, 4H2512-AA; settings: mean of both orientations
T3 chain: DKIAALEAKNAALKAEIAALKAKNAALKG

4H2873-AA = biological target: T4, 4H2873-AA; settings: mean of both orientations
T4 chain: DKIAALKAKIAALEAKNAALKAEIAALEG

4H278-AA = biological target: T5, 4H278-AA; settings: mean of both orientations
T5 chain: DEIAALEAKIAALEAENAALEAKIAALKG

4H2614-AA = biological target: T6, 4H2614-AA; settings: mean of both orientations
T6 chain: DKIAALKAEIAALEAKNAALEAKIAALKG

4H4033-AA = biological target: T7, 4H4033-AA; settings: mean of both orientations
T7 chain: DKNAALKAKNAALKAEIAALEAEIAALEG

4H3940-AA = biological target: T8, 4H3940-AA; settings: mean of both orientations
T8 chain: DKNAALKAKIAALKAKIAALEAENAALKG

4H1350-AA = biological target: T9, 4H1350-AA
T9 chain: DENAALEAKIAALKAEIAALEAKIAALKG

4H3605-AA = biological target: T10, 4H3605-AA; settings: mean of both orientations
T10 chain: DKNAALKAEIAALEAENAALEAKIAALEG

P6-AA-12HAA-L = biological target: T11, P6-AA-12HAA-L; settings: mean of both orientations
T11 chain: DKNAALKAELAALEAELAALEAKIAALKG

P6-AA-12HAA-V = biological target: T12, P6-AA-12HAA-V; settings: mean of both orientations
T12 chain: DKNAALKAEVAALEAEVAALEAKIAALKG

P6-AA-12HAA-R = biological target: T13, P6-AA-12HAA-R; settings: mean of both orientations
T13 chain: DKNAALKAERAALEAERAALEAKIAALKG

4H122-AA = biological target: T14, 4H122-AA; settings: mean of both orientations
T14 chain: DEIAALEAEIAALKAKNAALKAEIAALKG

4H3974-AA = biological target: T15, 4H3974-AA; settings: mean of both orientations
T15 chain: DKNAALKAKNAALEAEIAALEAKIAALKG

4H324-AA = biological target: T16, 4H324-AA; settings: mean of both orientations
T16 chain: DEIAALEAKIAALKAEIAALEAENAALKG

4H3449-AA = biological target: T17, 4H3449-AA; settings: mean of both orientations
T17 chain: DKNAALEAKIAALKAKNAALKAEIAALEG

P6-AA-1HGe-A = biological target: T18, P6-AA-1HGe-A; settings: mean of both orientations
T18 chain: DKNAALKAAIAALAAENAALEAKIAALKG

P6-AA-12HGe-M = biological target: T19, P6-AA-12HGe-M; settings: mean of both orientations
T19 chain: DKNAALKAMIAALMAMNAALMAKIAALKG

P6-AA-12HGe-A = biological target: T20, P6-AA-12HGe-A; settings: mean of both orientations
T20 chain: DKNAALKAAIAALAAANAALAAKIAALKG

P6-AA-1HAA-L = biological target: T21, P6-AA-1HAA-L; settings: mean of both orientations
T21 chain: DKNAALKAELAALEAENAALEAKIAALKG

P6-AA-1HAA-Y = biological target: T22, P6-AA-1HAA-Y; settings: mean of both orientations
T22 chain: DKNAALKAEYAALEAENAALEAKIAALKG

4H1639-AA = biological target: T23, 4H1639-AA; settings: mean of both orientations
T23 chain: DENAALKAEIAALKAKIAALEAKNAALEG

4H1738-AA = biological target: T24, 4H1738-AA; settings: mean of both orientations
T24 chain: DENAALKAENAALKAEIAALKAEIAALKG

4H3920-AA = biological target: T25, 4H3920-AA; settings: mean of both orientations
T25 chain: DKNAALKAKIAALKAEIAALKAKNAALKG

4H675-AA = biological target: T26, 4H675-AA; settings: mean of both orientations
T26 chain: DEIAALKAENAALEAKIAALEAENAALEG

4H3591-AA = biological target: T27, 4H3591-AA; settings: mean of both orientations
T27 chain: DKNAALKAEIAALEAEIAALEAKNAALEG

4H3417-AA = biological target: T28, 4H3417-AA; settings: mean of both orientations
T28 chain: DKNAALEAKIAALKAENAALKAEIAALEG

4H3121-AA = biological target: T29, 4H3121-AA; settings: mean of both orientations
T29 chain: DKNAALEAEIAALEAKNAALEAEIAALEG

4H1809-AA = biological target: T30, 4H1809-AA; settings: mean of both orientations
T30 chain: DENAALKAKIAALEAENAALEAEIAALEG

4H3365-AA = biological target: T31, 4H3365-AA; settings: mean of both orientations
T31 chain: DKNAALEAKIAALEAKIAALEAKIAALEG

4H355-AA = biological target: T32, 4H355-AA; settings: mean of both orientations
T32 chain: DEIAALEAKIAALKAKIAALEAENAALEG

P5-AA-1HGe-Q = biological target: T33, P5-AA-1HGe-Q; settings: mean of both orientations
T33 chain: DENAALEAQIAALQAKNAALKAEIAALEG

P5-AA-1HGe-A = biological target: T34, P5-AA-1HGe-A; settings: mean of both orientations
T34 chain: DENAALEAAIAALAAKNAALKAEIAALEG

P5-AA-1HAA-A = biological target: T35, P5-AA-1HAA-A; settings: mean of both orientations
T35 chain: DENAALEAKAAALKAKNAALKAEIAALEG

P5-AA-1HAA-D = biological target: T36, P5-AA-1HAA-D; settings: mean of both orientations
T36 chain: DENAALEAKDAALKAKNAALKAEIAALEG

P5-AA-1HGe-H = biological target: T37, P5-AA-1HGe-H; settings: mean of both orientations
T37 chain: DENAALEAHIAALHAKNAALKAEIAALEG

P5-AA-12HGe-Y = biological target: T38, P5-AA-12HGe-Y; settings: mean of both orientations
T38 chain: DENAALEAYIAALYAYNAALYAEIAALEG

O1-AA = biological target: T39, O1-AA; settings: mean of both orientations
T39 chain: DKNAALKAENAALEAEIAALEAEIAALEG

APC3645-AA = biological target: T40, APC3645-AA
T40 chain: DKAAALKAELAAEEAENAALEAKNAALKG

APC6108-AA = biological target: T41, APC6108-AA; settings: mean of both orientations
T41 chain: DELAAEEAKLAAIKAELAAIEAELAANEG

4H716-AA = biological target: T42, 4H716-AA; settings: mean of both orientations
T42 chain: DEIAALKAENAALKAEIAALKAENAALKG

interaction score (4H1639-AA): -1.38
interaction score (4H1738-AA): -0.841
Binder: DENAALKAEIAALKAENAALKAEIAALKG [4H1626-AA]

interaction score (P5-AA-1HGe-Q): 2.38
interaction score (P5-AA-1HGe-A): 2.06
interaction score (P5-AA-1HAA-A): 2.07
interaction score (P5-AA-1HAA-D): 1.43
interaction score (P5-AA-1HGe-H): 2.15
interaction score (P5-AA-12HGe-Y): 2.52
Binder: DKNAALKAEIAALEAENAALEAKIAALKG [4H3606-AA]

interaction score (APC3645-AA): -1.23
interaction score (APC6108-AA): -2.14
interaction score (4H716-AA): -1.81
Binder: DENAALKAKIAALEAKNAALEAKIAALEG [4H1845-AA]

Further lines, the binder ahead of its results:

Binder: DENAALEAKIAALKAEIAALEAKIAALKG [4H1350-AA]
interaction score (4H2513-AA): -1.31
interaction score (4H3922-AA): -0.898
interaction score (4H2512-AA): -0.538
interaction score (4H2873-AA): 1.38
interaction score (4H278-AA): 0.443
interaction score (4H2614-AA): -0.142
interaction score (4H4033-AA): -0.0842
interaction score (4H3940-AA): -0.283
interaction score (4H1350-AA): 2.09
interaction score (4H3605-AA): -0.433

Binder: DENAALEAKIAALKAKIAALKAEIAALEG [4H1385-AA]
interaction score (P6-AA-12HAA-L): 2.03
interaction score (P6-AA-12HAA-V): 2.15
interaction score (P6-AA-12HAA-R): 1.72

Binder: DENAALEAENAALEAEIAALEAEIAALEG [4H1153-AA]
interaction score (4H122-AA): -1.61

Binder: DEIAALEAENAALKAKNAALKAEIAALEG [4H249-AA]
interaction score (4H3974-AA): -0.0812
interaction score (4H324-AA): -1.59
interaction score (4H3449-AA): -1.43

Binder: DENAALEAKIAALKAKNAALKAEIAALEG [4H1401-AA]
interaction score (P6-AA-1HGe-A): 2.14
interaction score (P6-AA-12HGe-M): 0.2
interaction score (P6-AA-12HGe-A): -0.0521
interaction score (P6-AA-1HAA-L): 2.1
interaction score (P6-AA-1HAA-Y): 2.37

Binder: DENAALEAEIAALEAKIAALEAKNAALKG [4H1064-AA]
interaction score (4H3920-AA): 1.13
interaction score (4H675-AA): -1.16
interaction score (4H3591-AA): 0.232
interaction score (4H3417-AA): -1.43
interaction score (4H3121-AA): -1.6
interaction score (4H1809-AA): -1.44

Binder: DENAALEAENAALKAKIAALKAEIAALEG [4H1257-AA]
interaction score (4H3365-AA): -1.46
interaction score (4H355-AA): -1.88

Binder: DEIAALEAENAALEAKIAALKAENAALEG [4H171-AA]
interaction score (O1-AA): -1.52
